Assay results reported in article PMC7229167, “Atypical chemokine receptor ACKR2-V41A has decreased CCL2 binding, scavenging, and activation, supporting sustained inflammation and increased Alzheimer’s disease risk” (Scientific Reports, 2020).

Tests used:
[1] = target: T1, Atypical chemokine receptor 2 variant V41A (ACKR2-V41A; rs2228467) (human, UniProt O00590 1-384, V41A); assay: flow cytometry on cells; competition: transfected CHO-k1 cells incubated with unconjugated chemokine at 37 °C for 45 minutes, then stained with anti-human ACKR2 polyclonal IgG and PE secondary; blockage = 100 minus percent of ACKR2-positive cells; titration with non-linear analysis for Kd; conditions: one partner purified
T1 construct: Atypical chemokine receptor 2 (ACKR2), human, natural variant V41A (rs2228467), expressed on the surface of CHO-k1 cells; also called ACRK2-V41A; source: CHO-k1 cells, transfected (lipofectamine), G418 selected, enriched with anti-PE MicroBeads; on cells
T1 sequence (looked up): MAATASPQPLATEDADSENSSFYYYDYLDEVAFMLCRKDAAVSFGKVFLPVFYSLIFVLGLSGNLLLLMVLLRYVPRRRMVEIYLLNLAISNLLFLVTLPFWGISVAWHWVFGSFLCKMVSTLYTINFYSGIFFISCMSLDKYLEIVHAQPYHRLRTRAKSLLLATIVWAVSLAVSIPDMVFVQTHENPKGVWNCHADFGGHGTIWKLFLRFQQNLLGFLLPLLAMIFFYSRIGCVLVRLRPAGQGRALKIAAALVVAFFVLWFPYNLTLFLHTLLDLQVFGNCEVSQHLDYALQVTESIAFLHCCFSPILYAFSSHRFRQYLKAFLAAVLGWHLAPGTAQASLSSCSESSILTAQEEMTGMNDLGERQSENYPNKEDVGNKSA

[2] = target: T2, Atypical chemokine receptor 2, wild type (ACKR2-WT) (human, UniProt O00590 1-384); assay: as above; conditions: one partner purified
T2 construct: Atypical chemokine receptor 2 (ACKR2), human, wild type allele, expressed on the surface of CHO-k1 cells; also called CCBP-WT; source: CHO-k1 cells, transfected (lipofectamine), G418 selected, enriched with anti-PE MicroBeads; on cells
T2 sequence (looked up): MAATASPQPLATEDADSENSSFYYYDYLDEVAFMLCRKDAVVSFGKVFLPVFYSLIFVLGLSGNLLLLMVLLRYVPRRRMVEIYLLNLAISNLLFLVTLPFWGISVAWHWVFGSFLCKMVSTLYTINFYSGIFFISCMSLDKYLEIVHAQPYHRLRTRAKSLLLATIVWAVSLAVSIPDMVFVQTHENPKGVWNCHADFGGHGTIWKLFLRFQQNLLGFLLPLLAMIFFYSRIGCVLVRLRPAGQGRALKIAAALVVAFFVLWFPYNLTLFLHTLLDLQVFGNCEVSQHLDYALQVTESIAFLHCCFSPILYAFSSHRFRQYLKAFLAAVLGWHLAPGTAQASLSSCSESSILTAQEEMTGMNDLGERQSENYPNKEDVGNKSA

Kd [1]: 2030 nM
Kd [2]: 600 nM
B1: Chemokine ligand 4 (CCL4), unconjugated (ligand, UniProt P13236 24-92, looked up)
chain: APMGSDPPTACCFSYTARKLPRNFVVDYYETSSLCSQPAVVFQTKRSKQVCADPSESWVQEYVYDLELN
notes: Chemokine ligand 4 (CCL4), unconjugated; also called unconjugated CCL4; source: bought: PEPROTECH, Cat #300-.9
